Values of other authors as cited in PMC6611588, “Quantitative high-throughput screening assays for the discovery and development of SIRPα-CD47 interaction inhibitors” (PLoS ONE, 2019).
“And” between values parts separate entries of the source, which are not always exact repeats. Equal entries are not always repeated.

Biological target: CD47 (Homo sapiens) (UniProt Q08722)
Settings: cited from earlier work

CD47 (Homo sapiens), sequence (Q08722 19-323): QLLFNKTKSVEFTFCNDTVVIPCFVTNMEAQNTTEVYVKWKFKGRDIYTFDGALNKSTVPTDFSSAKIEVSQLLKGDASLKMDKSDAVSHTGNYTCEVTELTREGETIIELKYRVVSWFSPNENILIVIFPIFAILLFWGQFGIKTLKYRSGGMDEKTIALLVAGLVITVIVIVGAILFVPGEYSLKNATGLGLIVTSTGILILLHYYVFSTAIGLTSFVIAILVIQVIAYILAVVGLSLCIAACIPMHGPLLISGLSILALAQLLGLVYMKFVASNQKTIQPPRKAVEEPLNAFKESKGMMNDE
SIRPα, sequence (P78324 31-373): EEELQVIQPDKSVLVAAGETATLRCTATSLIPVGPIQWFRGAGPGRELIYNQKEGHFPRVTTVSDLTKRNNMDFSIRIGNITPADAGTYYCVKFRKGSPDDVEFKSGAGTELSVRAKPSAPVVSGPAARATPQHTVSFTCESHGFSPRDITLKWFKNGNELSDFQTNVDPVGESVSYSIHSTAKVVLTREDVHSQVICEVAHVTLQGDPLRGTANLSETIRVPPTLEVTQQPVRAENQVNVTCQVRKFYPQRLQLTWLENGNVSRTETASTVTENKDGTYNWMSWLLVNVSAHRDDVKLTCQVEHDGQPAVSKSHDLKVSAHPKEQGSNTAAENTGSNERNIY

In the case of SIRPα (from UniProt P78324), the Kd is given as 0.3 µM and 0.279 µM.
